Experimental data published in US20150297672A1, “Alpha- and gamma-MSH analogues” (TXP Pharma GmbH, priority 2014, published 2015).

Target: human melanocortin receptor type 1 (MC1r) (human) (UniProt Q01726)
Test: cell-based or functional assay

human melanocortin receptor type 1 (MC1r) (human), sequence (Q01726 whole entry): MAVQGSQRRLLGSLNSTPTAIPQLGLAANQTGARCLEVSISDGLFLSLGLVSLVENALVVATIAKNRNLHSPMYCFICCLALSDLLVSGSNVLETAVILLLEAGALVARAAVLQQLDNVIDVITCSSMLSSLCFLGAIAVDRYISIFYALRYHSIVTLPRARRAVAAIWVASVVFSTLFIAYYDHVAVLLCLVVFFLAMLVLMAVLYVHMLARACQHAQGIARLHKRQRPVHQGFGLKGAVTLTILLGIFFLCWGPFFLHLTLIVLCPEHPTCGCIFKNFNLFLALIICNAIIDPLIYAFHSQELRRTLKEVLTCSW

EC50, cAMP production [nM]	Emax (max efficacy expressed as percent of αMSH), cAMP production	maximal efficacy (Emax), cAMP production [nM]	Binder
1.35	62 % of αMSH	–	KKKKKKSYSXEHFRWGKPV (N-terminal acetyl; Nle (norleucine) at position 10 (written X); D-Phe at position 13; C-terminal amide) [Ac(Lys)6-NDP-αMSH (Ac(Lys)6-Ser-Tyr-Ser-Nle Glu-His-(D-Phe)-Arg-Trp-Gly-Lys-Pro-Val-NH2)]
2.12	72 % of αMSH	3	Ac-KKKKKKSYSMEHFRWGKPV-NH2
